The target in assay [1] is T1, CD47 (UniProt Q08722 19-323, limits assumed).
T1 construct: whole, on cells; also called CD47 on CD38^-CD47^+ Jurkat cells; CD47 on CD38^+CD47^+ NCI-H929 cells
The assay can be described thus: flow cytometry on CD38^-CD47^+ Jurkat cells, FITC anti-human IgG-Fc. On the technique in general: Flow cytometry measures light scatter and fluorescence of single cells or particles in a stream.
Procedure: Cells were washed with cold 1% BSA-PBS twice, and then incubated with FITC-conjugated secondary antibody against human IgG-Fc (Cat #F9512, Sigma) for 45 min. Cells were washed twice and re-suspended in 200 μl PBS. Then, the cells were subject to FACS analysis using a flow cytometer (Merck Millipore, Guava® easyCyte 5HT).

The target of assay [2] is T1, CD47. The assay can be described thus: FACS competition against SIRPα-mFc (3 µg/ml) on CD47^+CD38^+ NCI-H929 cells, PE anti-mouse IgG-Fc.
Procedure: The resultant mixtures were added to the wells of a 96-well plate each containing 50 μl 1×10⁶/ml CD47⁺CD38⁺ NCI-H929 cells, and the plate was incubated at 4° C. for 45 min. […] Cells were washed twice, re-suspended in 200 μl PBS, and subject to FACS analysis.

B1: IMM5602 (bispecific antibody, human IgG1, kappa)
heavy: QVQLVQSGAEVAKPGTSVKLSCKASGYTFTDYWMQWVKQRPGQGLEWIGTIYPGDGDTGYAQKFQGKATLTADKSSKTVYMHLSSLASEDSAVYYCARGDYYGSNSLDYWGQGTSVTVSSASTKGPSVFPLAPSSKSTSGGTAALGCLVKDYFPEPVTVSWNSGALTSGVHTFPAVLQSSGLYSLSSVVTVPSSSLGTQTYICNVNHKPSNTKVDKRVEPKSCDKTHTCPPCPAPELLGGPSVFLFPPKPKDTLMISRTPEVTCVVVDVSHEDPEVKFNWYVDGVEVHNAKTKPREEQYNATYRVVSVLTVLHQDWLNGKEYKCKVSNKALPAPIAATISKAKGQPREPQVYTLPPSREEMTKNQVSLTCLVKGFYPSDIAVEWESNGQPENNYKTTPPVLDSDGSFFLYSKLTVDKSRWQQGNVFSCSVMHEALHNHYTQKSLSLSPGK
light: not shown
notes: also called recombinant fusion protein; anti-CD38 heavy chain + SIRPαD1-linker-anti-CD38 light chain
Consider B1, for which the EC50 (commonly the concentration needed to bring the measured effect to its halfway point) in assay [1] turned out to be 21.9 nM.

B2: IMM5601 (bispecific antibody, human IgG1, kappa)
heavy: not shown
light: DIVMTQSHLSMSTSLGDPVSITCKASQDVSTVVAWYQQKPGQSPRRLIYSASYRYIGVPDRFTGSGAGTDFTFTISSVQAEDLAVYYCQQHYSPPYTFGGGTKLEIKRTVAAPSVFIFPPSDEQLKSGTASVVCLLNNFYPREAKVQWKVDNALQSGNSQESVTEQDSKDSTYSLSSTLTLSKADYEKHKVYACEVTHQGLSSPVTKSFNRGEC
notes: also called recombinant fusion protein; SIRPαD1-linker-anti-CD38 heavy chain + anti-CD38 light chain
As for B2, the IC50 – broadly, the concentration that gives 50% inhibition – in assay [2] was determined as 30.7 nM. In addition, a half-maximal response in assay [1] (EC50) required 14.1 nM.

Values taken from patent publication US20230110702A1 (IMMUNEONCO BIOPHARMACEUTICALS SHANGHAI, published 2023).
